This experiment deals with T1, CADM1FcΔ10 (Δ10 Fc variant formed by fusing human Fc with a CADM1 extracellular domain) (human).
T1 construct: The whole entry is the fusion (CADM1 extracellular domain, AAA linker, human IgG1 hinge-Fc); Dimerized via Fc; also called Fc10; dimerized FcΔ10
Kind of experiment: SPR (Biacore 8K), antibody amine-coupled on CM5, CADM1 as analyte, multi-cycle kinetics. The protocol: The antibody was diluted with a phosphate buffered saline (PBS) at a concentration of 1 mg/ml, and was then immobilized as a ligand on a sensor chip CM5 by an amine coupling method.

T1 sequence (chain, as listed by the source mutant limits assumed): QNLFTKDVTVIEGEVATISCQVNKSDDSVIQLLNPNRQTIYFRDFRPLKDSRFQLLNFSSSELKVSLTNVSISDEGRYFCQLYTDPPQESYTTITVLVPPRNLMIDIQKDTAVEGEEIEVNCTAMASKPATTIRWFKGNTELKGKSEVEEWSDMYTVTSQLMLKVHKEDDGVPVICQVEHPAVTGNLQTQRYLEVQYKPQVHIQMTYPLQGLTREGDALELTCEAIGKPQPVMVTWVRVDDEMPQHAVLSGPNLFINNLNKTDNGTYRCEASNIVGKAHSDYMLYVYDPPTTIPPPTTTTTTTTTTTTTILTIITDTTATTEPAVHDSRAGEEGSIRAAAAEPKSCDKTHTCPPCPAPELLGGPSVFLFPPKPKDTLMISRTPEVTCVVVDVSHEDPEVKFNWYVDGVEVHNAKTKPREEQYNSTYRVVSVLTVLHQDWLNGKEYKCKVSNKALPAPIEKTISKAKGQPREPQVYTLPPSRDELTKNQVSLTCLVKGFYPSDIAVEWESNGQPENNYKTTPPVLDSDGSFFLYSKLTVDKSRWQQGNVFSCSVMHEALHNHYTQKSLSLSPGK

B1: YTH-W-2C2 chimeric antibody (antibody, V domains shown)
VH: QVQLQQSGAELAKPGSSVKISCKASGYTFSNYDISWIKQTTGQGLDYIGYIHTGSGGTYYNEKFKGKATLTVDKSSSTAFMQLSSLTPEDTAVYYCARTPYVYYGSGYFDFWGPGTMVTVSS
VL: DIVMTQSPSSLAVSAGETVTINCKSSQSLLYSGNQKNYLAWYQQKPGQSPKLLIYWASTRQSGVPDRFIGSGSGTDFTLTISSVQAEDLAIYYCQQYYDTPDTFGAGTKLELKR
Usually Kd stands for the equilibrium constant for the complex coming apart. A lower Kd goes with higher affinity. For the molecule B1, the Kd amounted to 0.64 nM. This counts as sub-nanomolar.
